The experiment deals with recombinant human prothrombin (Factor II) (human) (UniProt P00734).

The values below come from patent publication US9598687B2.

As for “endoproteinase Lysyl endopeptidase (Lys-C) (tool reagent)”, the Lys-C fragments identified by reverse phase UPLC and mass spectrometry (peptide mapping) was determined as 25 fragments.
